Target: biotinylated sRAGE from transgenic silkworms co-expressing BirA and fed biotin bait (human) (UniProt Q15109)
Assay: SPR; Biacore 2000; biotinylated sRAGE on SA sensor chip via the C-terminal biotin, about 560 RU; F-AGEs 0.25-4 uM injected, single-cycle kinetics, 30 uL/min, 25 C, PBS (-); 1:1 Langmuir model

Chain of UniProt Q15109 (Q15109 23-332): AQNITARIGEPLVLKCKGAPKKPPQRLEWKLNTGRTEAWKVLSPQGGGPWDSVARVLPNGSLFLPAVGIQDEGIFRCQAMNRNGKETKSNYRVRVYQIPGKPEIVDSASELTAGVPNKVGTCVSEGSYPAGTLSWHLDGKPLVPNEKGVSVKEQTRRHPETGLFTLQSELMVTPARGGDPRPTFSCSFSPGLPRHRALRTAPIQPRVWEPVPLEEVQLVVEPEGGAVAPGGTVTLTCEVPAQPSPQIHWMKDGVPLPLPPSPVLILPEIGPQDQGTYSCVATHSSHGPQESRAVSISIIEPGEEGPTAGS

Substance: fructose-BSA (fructose-derived AGE-BSA) (from UniProt P02769 25-607) (ligand)
- Kd: 725 nM
- koff: 0.00165 s⁻¹
- kon: 7250 M⁻¹ s⁻¹
